The source of these data is patent US20140294898A1.

The assay deals with human PD-L1 on cells (human) (UniProt Q9NZQ7). Kind of assay: cell-based or functional assay.
Chain of human PD-L1 on cells (human) (Q9NZQ7 19-290): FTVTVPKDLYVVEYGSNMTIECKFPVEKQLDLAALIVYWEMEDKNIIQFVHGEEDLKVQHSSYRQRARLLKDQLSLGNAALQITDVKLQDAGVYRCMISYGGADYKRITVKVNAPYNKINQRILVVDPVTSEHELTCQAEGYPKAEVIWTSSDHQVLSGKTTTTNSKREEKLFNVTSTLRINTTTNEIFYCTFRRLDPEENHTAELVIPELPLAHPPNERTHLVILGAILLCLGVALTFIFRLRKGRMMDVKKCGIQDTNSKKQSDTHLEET

With anti-PD-L1 antibody (MDX-1105), the IFNγ secretion by CMV-specific T cells (ELISA), EC50 was 0.6 nM.
